From PMC4752584, “The C repressor of the P2 bacteriophage” (Journal of Biomolecular Nmr, 2015)

Target: the molecule itself
Experiment: NMR solution structure; 13C,15N-labelled P2 C at 6 mg/ml in 10 mM Na-phosphate pH 7.0, 150 mM NaCl, 10 % D2O; 13C- and 15N-NOESY-HSQC, 150 ms mixing time, 310 K, 900 MHz; CYANA2.1; homodimer interface found with aid from the crystal structure 2XCJ

B1: C-repressor of bacteriophage P2 (natural protein)
chain: MSNTISEKIVLMRKSEYLSRQQLADLTGVPYGTLSYYESGRSTPPTDVMMNILQTPQFTKYTLWFMTNQIAPEFGQIAPALAHFGQNETTSPHSGQKTG
notes: C repressor of bacteriophage P2, a 99 amino acid protein; wildtype; signals of residues up to 99 are reported; Uniformly 13C,15N labelled for the structure (grown in M9 with 13C-glucose and 15N-NH4Cl); No tag is mentioned; also called P2 C; P2C; source: E. coli BL21(DE3) with plasmid pEE679, purified (DEAE flow-through, HiTrap Heparin, Superdex 200)
binding result: binds
